The source of these data is paper PMC11585080 (ACS nano, 2019).

What all share (type): physicochemical
Data set [1] is described as follows: Analytical ultracentrifugation.
The nature of data set [2]: ThT fluorescence assay of Aβ1–40 aggregation.
Data set [3] in a line: Phase diagram of Aβ1–40 aggregation in water/alcohol mixtures.
Setting [4] is: representatively selected peak, 2% HFIP, 25 °C.
Where [5] appears, read: 6% HFIP, with sonication, 37 °C.
Where [6] appears, read: without TFE, with sonication, 10 μM Aβ1–40, 10 mM sodium phosphate buffer pH 7.5, 100 mM NaCl, 5 μM ThT, 37 °C, three independent measurements.

With “Aβ1–40 oligomers: Aβ1–40 dissolved in 100% HFIP, diluted 10-fold with water; ThT-negative β-structured spherical oligomers”, the “molecular weight of small oligomers” value in data set [1] (calculated from s-value ~5.2 S) was ~ 70 kDa. In addition, the “molecular weight of large oligomers” value in data set [1] (calculated from s-value ~24.7 S) is ~ 740 kDa. The “number of Aβ1–40 peptides forming small oligomers” value in data set [1] (from molecular weight ~70 kDa) is given as ~ 17. The “number of Aβ1–40 peptides forming large oligomers” value in data set [1] (from molecular weight ~740 kDa) is ~ 170. For the same substance, in data set [1] (setting [4]), the “sedimentation coefficient (s-value), large oligomers” value was ~ 24.7 S and the “sedimentation coefficient (s-value), small oligomers” value is listed as ~ 5.2 S. Also, in data set [2] (oligomers + 10 mM sodium phosphate buffer pH 7.5, 100 mM NaCl, quiescent, 37 °C), the “time of saturation of ThT fluorescence increase” value is ~ 35 h. The “increase in ThT intensity” value in data set [2] (oligomers + NaCl alone (50–2000 mM), no pH shift, continuous shaking) is recorded as “no increase”. Further, the “change in ThT fluorescence intensity of oligomer solution” value in data set [2] (oligomers without buffer (pH ~4), ~2 days without agitation, 37 °C) is “no changes”.

Regarding amyloid-β (1–40) [Aβ1–40], in data set [3] (>40% TFE and >30% HFIP, regardless of extensive sonication), the “solubility state at high alcohol concentrations” value was “remained soluble”. Moreover, in data set [3] (water/TFE mixtures, with sonication, 100 mM NaCl, pH 7.5), the amyloid-forming region is listed as 0–25 % TFE. Also, in data set [2] (2% HFIP, quiescent, 10 μM, pH 7.5, 100 mM NaCl, 37 °C), the “lag time before sigmoidal increase in ThT fluorescence” value is ~ 6 h. Also, in data set [2] (setting [5]), the “conversion rate constant (protofibrils to amyloid fibrils)” value was 2.21 ± 0.85 h⁻¹ and the “time at which the ThT reaction was completed” value was ~ 2 h. The “change in intensity of ThT fluorescence” value in data set [2] (6% HFIP, without sonication, after ~35 h, 37 °C) was “did not change”. The “ThT fluorescence during incubation” value in data set [2] (50% HFIP, without sonication, test tubes, pH 7.5, 100 mM NaCl, 37 °C) is given as “maintained a very low intensity”. Further, the “effect of sonication on ThT fluorescence” value in data set [2] (greater than 40% TFE, with sonication, 10 μM, pH 7.5, 100 mM NaCl, 37 °C) is “did not affect the ThT fluorescence”. Further, in data set [2] (more than 25% TFE, quiescent, 10 μM, pH 7.5, 100 mM NaCl, 37 °C), the “change in ThT-based kinetics and CD spectra” value is listed as “no change”. Also, the “change in ThT fluorescence intensity after incubation” value in data set [2] (without TFE, quiescent, incubation ~2 days, 10 μM, pH 7.5, 100 mM NaCl, 37 °C) is on record as “no change”. For the same substance, in data set [2] (setting [6]), the “elongation rate constant of amyloid fibrillation (ThT)” value is given as ~ 10 h^−1 and the “lag time of amyloid fibrillation (ThT)” value was ~ 1 h.
